Test results reported in PMC4825978, “A Hox Transcription Factor Collective Binds a Highly Conserved Distal-less cis-Regulatory Module to Generate Robust Transcriptional Outcomes”.

How the values were obtained:
[1] = target: T1, Exd51A (ExdN51A);Hth (in heterodimer) (Drosophila melanogaster?;Drosophila …, UniProt P40427;O46339 1-376;1-487, N291A|); assay: EMSA; 200 nM heterodimer, no Abd-A; no significant binding; Native PAGE EMSA, probe 0.36 uM, triplicate; buffer, salt, pH and temperature not given (as previously described). Further probes (single/paired sites, Hox point mutants; percent bound) only in S4 and S5 Figs, not in the material, number of rows unknown; conditions: protein: recombinant;recombinant; tags: ;His; copies: 1;1
T1 sequence 1: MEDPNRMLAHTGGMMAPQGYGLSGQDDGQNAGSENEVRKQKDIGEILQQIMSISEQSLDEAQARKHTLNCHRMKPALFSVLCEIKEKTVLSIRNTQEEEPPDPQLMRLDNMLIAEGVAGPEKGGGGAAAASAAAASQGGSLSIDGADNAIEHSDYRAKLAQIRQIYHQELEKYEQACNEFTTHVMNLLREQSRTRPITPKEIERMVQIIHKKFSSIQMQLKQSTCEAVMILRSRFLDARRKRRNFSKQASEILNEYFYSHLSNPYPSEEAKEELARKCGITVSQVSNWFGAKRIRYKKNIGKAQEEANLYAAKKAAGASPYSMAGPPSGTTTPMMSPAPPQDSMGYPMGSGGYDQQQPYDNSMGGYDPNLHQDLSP
T1 sequence 2: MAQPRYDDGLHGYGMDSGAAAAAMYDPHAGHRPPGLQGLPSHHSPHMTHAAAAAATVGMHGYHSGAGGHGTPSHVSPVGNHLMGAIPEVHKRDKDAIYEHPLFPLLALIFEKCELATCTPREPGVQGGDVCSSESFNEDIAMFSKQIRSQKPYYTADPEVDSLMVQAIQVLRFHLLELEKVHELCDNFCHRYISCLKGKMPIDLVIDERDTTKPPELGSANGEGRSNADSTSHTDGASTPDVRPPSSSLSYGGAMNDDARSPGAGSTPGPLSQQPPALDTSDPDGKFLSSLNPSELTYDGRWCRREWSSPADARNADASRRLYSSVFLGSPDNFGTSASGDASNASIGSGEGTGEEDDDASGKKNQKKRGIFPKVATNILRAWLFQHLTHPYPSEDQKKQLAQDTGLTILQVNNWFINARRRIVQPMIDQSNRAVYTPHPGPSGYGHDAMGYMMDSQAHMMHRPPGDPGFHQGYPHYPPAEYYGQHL

[2] = target: Abd-A;Exd (in Exd/Hth heterodimer);Hth (in heterodimer) (Drosophila melanogaster?;Drosophila …, UniProt P29555;P40427;O46339 261-590;1-376;1-487, ||); assay: EMSA; Abd-A 37.5-300 nM with 75 nM Exd/Hth; highly cooperative, third slower complex; Native PAGE EMSA, probe 0.36 uM, triplicate; buffer, salt, pH and temperature not given (as previously described). Further probes (single/paired sites, Hox point mutants; percent bound) only in S4 and S5 Figs, not in the material, number of rows unknown; conditions: protein: recombinant;recombinant;recombinant; tags: His;untagged;His; copies: 1;1;1
Abd-A;Exd (in Exd/Hth heterodimer);Hth (in heterodimer), sequence (P29555 261-590, one chain of several): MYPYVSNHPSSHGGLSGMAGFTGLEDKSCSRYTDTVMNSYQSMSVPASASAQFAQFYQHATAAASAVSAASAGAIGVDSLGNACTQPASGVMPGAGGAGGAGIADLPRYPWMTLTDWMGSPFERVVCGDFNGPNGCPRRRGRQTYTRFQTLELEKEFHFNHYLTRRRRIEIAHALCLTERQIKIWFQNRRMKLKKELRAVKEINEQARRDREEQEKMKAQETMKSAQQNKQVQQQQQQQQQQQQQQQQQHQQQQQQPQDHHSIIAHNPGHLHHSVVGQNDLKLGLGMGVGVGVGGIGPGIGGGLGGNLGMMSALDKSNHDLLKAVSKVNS

[3] = target: Abd-A;Exd51A (ExdN51A);Hth (in heterodimer) (Drosophila melanogaster?;Drosophila …, UniProt P29555;P40427;O46339 261-590;1-376;1-487, |N291A|); assay: EMSA; Abd-A 37.5-300 nM with 200 nM ExdN51A/Hth; significant cooperative complex; Native PAGE EMSA, probe 0.36 uM, triplicate; buffer, salt, pH and temperature not given (as previously described). Further probes (single/paired sites, Hox point mutants; percent bound) only in S4 and S5 Figs, not in the material, number of rows unknown; conditions: protein: recombinant;recombinant;recombinant; tags: His;;His; copies: 1;1;1
Abd-A;Exd51A (ExdN51A);Hth (in heterodimer), sequence (P29555 261-590, stated change not applied, one chain of several): as the sequence (P29555 261-590, one chain of several) above

B1: DCRE wild-type full-length probe (dsDNA)
DNA 1: GGAATTTATGTCCGACAATATTTGGGAAATTAAATCATTCCCGCGGACAGTTTTATAGTGCGGGCGTGGC
DNA 2: GCCACGCCCGCACTATAAAACTGTCCGCGGGAATGATTTAATTTCCCAAATATTGTCGGACATAAATTCC
B1: no binding [1]; binds [2]; binds [3].
